From US20260034194A1, “PHARMACEUTICAL COMPOSITIONS AND METHODS OF TREATING PSP” (priority 2022, published 2026)
Read-outs that look alike come from different tables or passages of the source.

How the values were obtained:
[1] = assay type: binding; conditions: for Kd: FP, 1 nM F-STX, 25° C., errors S.D.; for ΔΔG: ΔΔG = RT ln(Kd mutant or XSxph/Kd RcSxph), T = 298K, FP with F-STX
[2] = assay type: binding; conditions: ITC, STX, 25° C.
Procedure: . […] In almost all mutants, binding affinity loss correlated with a reduction in enthalpy, consistent with a loss of interactions (Table S2). […]. […] Together, these three assays (FIGS. 1E and G) provide a robust and versatile suite of options for characterizing STX:Sxph interactions.
ITC measurements were performed at 25° C. using a MicroCal PEAQ-ITC calorimeter (Malvern Panalytical). […]. This STX stock was diluted with the SEC buffer to prepare 100 μM or 300 μM STX solutions having a final buffer composition of 135 mM NaCl, 9 mM HEPES, pH 7.4. […]. The calorimetric experiment settings were: reference power, 5 μcal/s; spacing between injections, 150 s; stir speed 750 rpm; and feedback mode, high. Data were analyzed using MicroCal PEAQ-ITC Analysis Software (Malvern Panalytical) using a single binding site model. The heat of dilution from titrations of 100 μM STX in 135 mM NaCl, 9 mM HEPES, pH 7.4 into 135 mM NaCl, 9 mM HEPES, pH 7.4 was subtracted from each experiment to correct the baseline.

Molecule	Kd [1] [nM]	ΔΔG [1] [kcal/mol]	Kd [2] [nM]	ΔG [2] [kcal/mol]	ΔH [2] [kcal/mol]	ΔS (cal mol^−1 K^−1) [2] [cal mol^−1 K^−1]
OsSxph: Oophaga sylvatica (Little devil poison frog) saxiphilin, SEQ ID NO: 5 (protein, listed as Oophaga sylvatica) MRMTLQVLLCLCLLVLSSAAPNSRNVRWCVTSDTEEQKCNDLVTSCHVDEILLICVKKSSKEDCVRAISNGEADAISLDSKDVYKASLDPFNLKPIMTEAYSESEQTPCMRHRQSVLGGKKMIIGAFVPKCDEKGNYVPKQCHDSTGFCWCLNENGEEIEGTRTPPGNSGLTCENKANKPPCLKERQKLLSAKPSPAVFVPECDEKGNYRPEQSHVYSWCVDEYGEEVLGSRTFPGKPPKPCEASGETPCIKERNKVLSAAEPLPGAFVPDCDEKGYFSPLQFHGSTGHSWCVTKNGEEIKGTRTRPGQTPPTCDVPAPATLHYAVAVVKKSSSFQLDQLKGKRSCHSAVGEAAGWVAPLNVLLKKKFLLWEEPEQKSTEKVASEIFSASCAAGAQEANLCEQCAGQEDKCTRGPGEPYYGDEGAIRCLRDDKGDVAFVEDTALTGQYSDNFELLCPDNTRRPLSQYKICNFGSVPRHAVVTRSTGDKMKEITEYLLQAQKKECKLFSSTHGKDLLFEDTTSALIALPSGMDTFLFLGPDLFNGMKTLNGAHPPRVKQKIRWCPQNKNEKKKCDDWSSVSGGSIKCTEPSSALECIKMILKDEADAVNLDAEHAYTALKCGLLPSLEEYRNKDDLIVCQIPGAEYSEFGSYRIVALVKKTDKDITWNNLQGKKSCHTHVGDMIGWNIPVYLISKKTKNCDLGSYFSQSCAPGSPIDSNLCKLCIGDPQNTEANTKCSLSDKEAYYGNEGAVRCLVETGDVAFVPHTAVFENTDGKNPALWAKDLKSTDFELLCPDGSRAPVSDYKKCKLSGIANHVTVTRPESVKDVVRITQNQESLYGRTGSQKDIFQMFSSSYGQNLLFNDRTQCLFEFDRMLDRDIMDDYLGKPFHKHLMSDNDCLPKSALATACSFHH	0.8 ± 0.5	-1.32				
E540D: RcSxph STX binding pocket mutant E540D (protein) MAPTFQTALFFTIISLSFAAPNAKQVRWCAISDLEQKKCNDLVGSCNVPDITLVCVLRSSTEDCMTAIKDGQADAMFLDSGEVYEASKDPYNLKPIIAEPYSSNRDLQKCLKERQQALAKKMIGHYIPQCDEKGNYQPQQCHGSTGHCWCVNAMGEKISGTNTPPGQTRATCERHELPKCLKERQVALGGDEKVLGRFVPQCDEKGNYEPQQFHGSTGYSWCVNAIGEEIAGTKTPPGKIPATCQKHDLVTTCHYAVAMVKKSSAFQFNQLKGKRSCHSGVSKTDGWKALVTVLVEKKLLSWDGPAKESIQRAMSKFFSVSCIPGATQTNLCKQCKGEEGKNCKNSHDEPYYGNYGAFRCLKEDMGDVAFLRSTALSDEHSEVYELLCPDNTRKPLNKYKECNLGTVPAGTVVTRKISDKTEDINNFLMEAQKRQCKLFSSAHGKDLMFDDSTLQLALLSSEVDAFLYLGVKLFHAMKALTGDAHLPSKNKVRWCTINKLEKMKCDDWSAVSGGAIACTEASCPKGCVKQILKGEADAVKLEVQYMYEALMCGLLPAVDEYHNKDDFGPCKTPGSPYTDFGTLRAVALVKKSNKDINWNNIKGKKSCHTGVGDIAGWVIPVSLIRRQNDNSDIDSFFGESCAPGSDTKSNLCKLCIGDPKNSAANTKCSLSDKEAYYGNQGAFRCLVEKGDVAFVPHTVVFENTDGKNPAVWAKNLKSEDFELLCLDGSRAPVSNYKSCKLSGIPPPAIVTREESISDVVRIVANQQSLYGRKGFEKDMFQLFSSNKGNNLLFNDNTQCLITFDRQPKDIMEDYFGKPYYTTVYGASRSAMSSELISACTIKHC	99.9 ± 25.1	1.54	68.9 ± 10.7	-9.8 ± 0.1	-16.3 ± 1.7	−21.9 ± 5.7
Y558A: RcSxph STX binding pocket mutant Y558A (protein) MAPTFQTALFFTIISLSFAAPNAKQVRWCAISDLEQKKCNDLVGSCNVPDITLVCVLRSSTEDCMTAIKDGQADAMFLDSGEVYEASKDPYNLKPIIAEPYSSNRDLQKCLKERQQALAKKMIGHYIPQCDEKGNYQPQQCHGSTGHCWCVNAMGEKISGTNTPPGQTRATCERHELPKCLKERQVALGGDEKVLGRFVPQCDEKGNYEPQQFHGSTGYSWCVNAIGEEIAGTKTPPGKIPATCQKHDLVTTCHYAVAMVKKSSAFQFNQLKGKRSCHSGVSKTDGWKALVTVLVEKKLLSWDGPAKESIQRAMSKFFSVSCIPGATQTNLCKQCKGEEGKNCKNSHDEPYYGNYGAFRCLKEDMGDVAFLRSTALSDEHSEVYELLCPDNTRKPLNKYKECNLGTVPAGTVVTRKISDKTEDINNFLMEAQKRQCKLFSSAHGKDLMFDDSTLQLALLSSEVDAFLYLGVKLFHAMKALTGDAHLPSKNKVRWCTINKLEKMKCDDWSAVSGGAIACTEASCPKGCVKQILKGEADAVKLEVQYMYEALMCGLLPAVEEYHNKDDFGPCKTPGSPATDFGTLRAVALVKKSNKDINWNNIKGKKSCHTGVGDIAGWVIPVSLIRRQNDNSDIDSFFGESCAPGSDTKSNLCKLCIGDPKNSAANTKCSLSDKEAYYGNQGAFRCLVEKGDVAFVPHTVVFENTDGKNPAVWAKNLKSEDFELLCLDGSRAPVSNYKSCKLSGIPPPAIVTREESISDVVRIVANQQSLYGRKGFEKDMFQLFSSNKGNNLLFNDNTQCLITFDRQPKDIMEDYFGKPYYTTVYGASRSAMSSELISACTIKHC	1.4 ± 0.3	-1.00	1.2 ± 0.4	-12.2 ± 0.2	-15.3 ± 0.0	−11.1 ± 1.1
D794E: RcSxph STX binding pocket mutant D794E (protein) MAPTFQTALFFTIISLSFAAPNAKQVRWCAISDLEQKKCNDLVGSCNVPDITLVCVLRSSTEDCMTAIKDGQADAMFLDSGEVYEASKDPYNLKPIIAEPYSSNRDLQKCLKERQQALAKKMIGHYIPQCDEKGNYQPQQCHGSTGHCWCVNAMGEKISGTNTPPGQTRATCERHELPKCLKERQVALGGDEKVLGRFVPQCDEKGNYEPQQFHGSTGYSWCVNAIGEEIAGTKTPPGKIPATCQKHDLVTTCHYAVAMVKKSSAFQFNQLKGKRSCHSGVSKTDGWKALVTVLVEKKLLSWDGPAKESIQRAMSKFFSVSCIPGATQTNLCKQCKGEEGKNCKNSHDEPYYGNYGAFRCLKEDMGDVAFLRSTALSDEHSEVYELLCPDNTRKPLNKYKECNLGTVPAGTVVTRKISDKTEDINNFLMEAQKRQCKLFSSAHGKDLMFDDSTLQLALLSSEVDAFLYLGVKLFHAMKALTGDAHLPSKNKVRWCTINKLEKMKCDDWSAVSGGAIACTEASCPKGCVKQILKGEADAVKLEVQYMYEALMCGLLPAVEEYHNKDDFGPCKTPGSPYTDFGTLRAVALVKKSNKDINWNNIKGKKSCHTGVGDIAGWVIPVSLIRRQNDNSDIDSFFGESCAPGSDTKSNLCKLCIGDPKNSAANTKCSLSDKEAYYGNQGAFRCLVEKGDVAFVPHTVVFENTDGKNPAVWAKNLKSEDFELLCLDGSRAPVSNYKSCKLSGIPPPAIVTREESISDVVRIVANQQSLYGRKGFEKDMFQLFSSNKGNNLLFNDNTQCLITFDRQPKDIMEEYFGKPYYTTVYGASRSAMSSELISACTIKHC	1070 ± 69.3	2.94	312.5 ± 2.9	-8.9 ± 0.1	-11.8 ± 0.0	−8.9 ± 0.1
